According to patent US20260184794A1, “ANTIBODIES AGAINST INTEGRIN ALPHA 11 BETA 1 AND USES THEREOF” (Momenta Pharmaceuticals, Inc., priority 2022, published 2026):
Where two headings read alike, the source gives them in different places.

Tests used:
CHO-hu α11 [1] = molecular target: T1, CHO-hu α11 (Homo sapiens, UniProt Q9UKX5); assay: Cell adhesion inhibition on type I collagen (xCelligence); assay type: cell-based
T1 construct: expressed in transfected cells; host or cells: CHO-K1
Protocol: 0.6×10^6 cells/mL were incubated with each antibody at a range of concentrations for 20 minutes at 37° C. E-Plate VIEW 96 PET plate coated with 100 ng/ml type I collagen or PBS overnight at room temperature was blocked in 3% BSA for 1 hour at room temperature. After washing the plate with PBS, cell and antibody mixture was added to the wells and the plate was places into an xCelligence machine. Cell adhesion was recorded over 6 hours. The time point of maximum cell adhesion was used for comparison relative to control.

CHO-hu α11 [2] = molecular target: T1, CHO-hu α11; assay: FACS antibody binding to CHO-K1 cells expressing human α11
Protocol: 200,000 cells (wild-type CHO-K1 cells or CHO-K1 cells expressing human α11) were incubated with each antibody at desired concentrations in FACS buffer for 30 min at 4° C. Then, the cells were washed with FACS buffer and incubated with secondary antibody at 1:100 dilution for 30 minutes at 4° C. Cells were then washed and fixed with 1% PF A in PBS for 20 minutes at room temperature; washed again and read on a cytometer in FACS buffer.

[3] = tested on: CHO cell lines expressing α11; assay: Collagen gel contraction assay; assay type: cell-based
Protocol: 24-well plates were blocked with 2% BSA in PBS overnight at 37° C. The following day, the plates were washed 3 times with PBS before being used in the assay. Human CHO cell lines expressing all were harvested and resuspended at 1.25×10^6 in ExpiCHO Expression Medium (Gibco™ Cat #A2910002). The collagen gel solution was prepared by diluting 3 mg/mL stock collagen type I (Gibco™ Collagen I Rat Protein, Tail Cat #A1048301) to I mg/mL in the media containing the CHO cells. Sodium hydroxide was added to the solution to neutralize the pH and 400 μL of the collagen solution was added to each well of the 24-well plates. For the wells where the antibodies were included in the collagen gel solution, CHO cells were prepared at 2.5×10^6 and the antibodies were prepared at 2× final concentration in ExpiCHO media. The cells and antibodies were then combined 1:1 before the addition of the stock collagen type I. The gels were allowed to polymerize for 60 minutes at 37° C. Antibodies were added to the ExpiCHO media, which was then layered on top of the polymerized gel ([…]). The gels were incubated for 6 days at 37° C. before gel contraction was quantified. Images of each well were analyzed using Image J and gel contraction was determined as a percentage of the initial gel area.

[4] = tested on: Precision cut kidney slices (PCKS); assay: Human fibrotic precision cut kidney slices (PCKS) treated with TGF-β1 and PDGFββ, secreted mediators; assay type: cell-based; details: increasing antibody doses, dose dependent; for inhibition of secreted Col1a1: FIG. 2; for inhibition of secreted IL-11: FIG. 3
Protocol: Precision cut kidney slices (PCKS) were treated with TGF-β1 and PDGFββ in the presence or absence of Alk5i and increasing doses of anti-α11β1 antibodies. The antibodies provided an inhibition of secreted pro-fibrotic and pro-inflammatory mediators Col1a1 (1994-01-C7 FIG. 2A, 79E3E3 FIG. 2B, and 16E10 FIG. 2C) and IL-11 (1994-01-C7 FIG. 3A, 79E3E3 FIG. 3B, and 16E10 FIG. 3C) in a dose dependent manner.

mouse α11β1 = mouse α11β1 (Mus musculus, UniProt P61622); assay: Cross-reactivity with mouse α11β1 (SPR); assay type: binding
Chain of mouse α11β1 (P61622 23-1141 limits assumed): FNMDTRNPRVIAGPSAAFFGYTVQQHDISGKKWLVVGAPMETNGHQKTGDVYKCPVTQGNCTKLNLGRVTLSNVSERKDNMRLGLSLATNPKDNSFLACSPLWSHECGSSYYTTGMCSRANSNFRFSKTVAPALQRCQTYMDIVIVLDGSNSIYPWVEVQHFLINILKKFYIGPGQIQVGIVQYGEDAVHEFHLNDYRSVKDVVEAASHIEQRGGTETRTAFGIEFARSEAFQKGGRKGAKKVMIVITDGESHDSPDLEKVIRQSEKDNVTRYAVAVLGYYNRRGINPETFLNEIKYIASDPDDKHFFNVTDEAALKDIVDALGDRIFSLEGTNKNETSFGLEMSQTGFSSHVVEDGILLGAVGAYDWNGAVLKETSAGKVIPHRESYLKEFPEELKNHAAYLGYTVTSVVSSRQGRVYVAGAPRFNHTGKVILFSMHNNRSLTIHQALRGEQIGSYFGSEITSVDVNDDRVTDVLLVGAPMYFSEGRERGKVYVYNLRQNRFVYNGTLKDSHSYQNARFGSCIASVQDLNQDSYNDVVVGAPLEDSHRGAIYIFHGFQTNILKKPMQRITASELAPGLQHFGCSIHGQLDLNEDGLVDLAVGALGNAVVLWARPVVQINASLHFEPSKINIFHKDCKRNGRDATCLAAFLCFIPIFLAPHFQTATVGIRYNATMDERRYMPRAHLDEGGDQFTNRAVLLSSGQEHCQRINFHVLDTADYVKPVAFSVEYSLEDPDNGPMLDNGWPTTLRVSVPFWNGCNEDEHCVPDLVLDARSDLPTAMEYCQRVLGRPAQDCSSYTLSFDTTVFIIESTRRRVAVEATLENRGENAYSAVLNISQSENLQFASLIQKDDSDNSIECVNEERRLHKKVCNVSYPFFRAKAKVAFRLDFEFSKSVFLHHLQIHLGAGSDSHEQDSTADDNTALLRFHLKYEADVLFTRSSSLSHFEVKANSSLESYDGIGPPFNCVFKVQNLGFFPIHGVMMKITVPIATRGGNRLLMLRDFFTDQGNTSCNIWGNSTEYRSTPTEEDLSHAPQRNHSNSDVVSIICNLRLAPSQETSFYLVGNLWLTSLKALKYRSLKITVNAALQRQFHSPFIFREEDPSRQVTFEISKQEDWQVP
Chain of mouse α11β1 (P09055 21-728 partner limits assumed): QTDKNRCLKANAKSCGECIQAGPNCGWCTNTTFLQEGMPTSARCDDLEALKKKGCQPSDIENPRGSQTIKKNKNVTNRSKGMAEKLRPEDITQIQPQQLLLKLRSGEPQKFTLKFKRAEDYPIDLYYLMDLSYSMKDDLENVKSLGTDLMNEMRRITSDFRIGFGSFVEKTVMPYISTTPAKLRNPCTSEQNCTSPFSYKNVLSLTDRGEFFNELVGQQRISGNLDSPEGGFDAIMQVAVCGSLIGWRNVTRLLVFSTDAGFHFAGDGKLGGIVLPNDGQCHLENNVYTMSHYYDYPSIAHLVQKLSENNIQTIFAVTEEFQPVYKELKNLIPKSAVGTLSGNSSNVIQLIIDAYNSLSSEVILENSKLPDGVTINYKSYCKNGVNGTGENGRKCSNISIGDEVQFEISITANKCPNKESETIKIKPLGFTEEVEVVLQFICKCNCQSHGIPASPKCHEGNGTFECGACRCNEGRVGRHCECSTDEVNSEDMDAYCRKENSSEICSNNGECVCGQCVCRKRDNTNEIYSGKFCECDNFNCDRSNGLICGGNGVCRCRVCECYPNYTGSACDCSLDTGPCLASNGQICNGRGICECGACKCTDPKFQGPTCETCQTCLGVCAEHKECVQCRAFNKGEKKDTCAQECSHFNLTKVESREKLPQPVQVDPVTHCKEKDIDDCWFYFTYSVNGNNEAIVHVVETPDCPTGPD

Pulmonary Myofibroblast = assay: FACS antibody binding to pulmonary myofibroblasts (HPF/MF); design: species or system human; details: Table 11, 1994-01-C7 variants, FIG. 4B
Protocol: Human Pulmonary Fibroblasts (ScienCell) were cultured in complete Fibroblast Growth Medium (ScienCell) until 80% confluent in T-150 flasks. Cells were washed and harvested using Accutase. Cells were seeded into T-150 flasks at 7,500 cells/cm^2 in complete FGF and cultured for 72 hours. Cells were then washed and starved in serum reduced medium for 24 hours. After starvation, cells were treated with TGFβ1 (R&D Systems) for 72 hours. Cells were harvested using Accutase and seeded in 96-well conical bottom plates. Cells were blocked with Heat Inactived Fetal Bovine Serum (Gibco) for 30 minutes at 4° C. Cells were then incubated with anti-al I antibodies at the doses described in each figure for 30 minutes at 4° C. A human anti-al I antibody (Creative BioLabs) was included as a positive control as well as the appropriate IgG isotype negative controls. Cells were washed twice and incubated with PE conjugated secondary antibodies specific to the IgG class of the anti-α11 antibodies being tested for 30 minutes at 4° C. Cells were washed twice and fixed in 1% PF A for 30 minutes. Cells were acquired on a FACS Verse […]. Data were analyzed by gating on single cells and determining the geometric Mean Fluorescence Intensity (gMFI) in the PE channel for each sample.

[5] = Table 12, 16E10 variants, FIG. 5B, read-out: CHO-α11 Adhesion Inhibition IC50
[6] = Table 11, 1994-01-C7 variants, FIG. 4A
[7] = Table 11, 1994-01-C7 variants, FIG. 4C, read-out: Inhibition of Cell Adhesion IC50

T1 sequence (Q9UKX5 23-1188): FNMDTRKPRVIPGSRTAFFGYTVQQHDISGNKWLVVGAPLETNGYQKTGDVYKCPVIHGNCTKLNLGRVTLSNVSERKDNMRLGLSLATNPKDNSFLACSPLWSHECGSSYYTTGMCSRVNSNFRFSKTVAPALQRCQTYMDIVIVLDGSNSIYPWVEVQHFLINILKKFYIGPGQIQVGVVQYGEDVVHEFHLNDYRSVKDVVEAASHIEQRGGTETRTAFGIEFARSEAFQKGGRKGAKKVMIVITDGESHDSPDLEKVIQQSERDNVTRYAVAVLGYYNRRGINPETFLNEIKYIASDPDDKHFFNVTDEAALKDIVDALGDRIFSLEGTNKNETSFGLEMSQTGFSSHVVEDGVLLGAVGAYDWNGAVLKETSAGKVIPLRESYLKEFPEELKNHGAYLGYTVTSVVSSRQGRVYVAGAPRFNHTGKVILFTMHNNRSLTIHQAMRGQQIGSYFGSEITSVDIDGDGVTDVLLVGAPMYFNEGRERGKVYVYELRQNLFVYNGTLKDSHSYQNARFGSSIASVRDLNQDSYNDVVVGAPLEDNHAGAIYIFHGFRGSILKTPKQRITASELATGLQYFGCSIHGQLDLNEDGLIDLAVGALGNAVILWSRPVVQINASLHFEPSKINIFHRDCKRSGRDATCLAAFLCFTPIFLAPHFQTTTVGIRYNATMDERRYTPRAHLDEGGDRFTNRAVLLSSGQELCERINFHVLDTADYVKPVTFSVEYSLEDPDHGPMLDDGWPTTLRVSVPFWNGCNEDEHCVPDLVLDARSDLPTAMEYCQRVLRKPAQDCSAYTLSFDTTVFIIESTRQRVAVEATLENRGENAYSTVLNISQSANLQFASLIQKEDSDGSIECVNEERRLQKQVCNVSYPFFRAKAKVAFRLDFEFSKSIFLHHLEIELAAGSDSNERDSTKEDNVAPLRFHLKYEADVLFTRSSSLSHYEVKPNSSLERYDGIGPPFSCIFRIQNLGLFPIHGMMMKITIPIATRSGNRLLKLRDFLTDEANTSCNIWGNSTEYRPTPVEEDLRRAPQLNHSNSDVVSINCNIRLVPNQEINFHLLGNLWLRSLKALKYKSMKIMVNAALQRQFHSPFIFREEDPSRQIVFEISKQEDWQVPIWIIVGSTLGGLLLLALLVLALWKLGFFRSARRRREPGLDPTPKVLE
T1 sequence (P05556 21-798 partner): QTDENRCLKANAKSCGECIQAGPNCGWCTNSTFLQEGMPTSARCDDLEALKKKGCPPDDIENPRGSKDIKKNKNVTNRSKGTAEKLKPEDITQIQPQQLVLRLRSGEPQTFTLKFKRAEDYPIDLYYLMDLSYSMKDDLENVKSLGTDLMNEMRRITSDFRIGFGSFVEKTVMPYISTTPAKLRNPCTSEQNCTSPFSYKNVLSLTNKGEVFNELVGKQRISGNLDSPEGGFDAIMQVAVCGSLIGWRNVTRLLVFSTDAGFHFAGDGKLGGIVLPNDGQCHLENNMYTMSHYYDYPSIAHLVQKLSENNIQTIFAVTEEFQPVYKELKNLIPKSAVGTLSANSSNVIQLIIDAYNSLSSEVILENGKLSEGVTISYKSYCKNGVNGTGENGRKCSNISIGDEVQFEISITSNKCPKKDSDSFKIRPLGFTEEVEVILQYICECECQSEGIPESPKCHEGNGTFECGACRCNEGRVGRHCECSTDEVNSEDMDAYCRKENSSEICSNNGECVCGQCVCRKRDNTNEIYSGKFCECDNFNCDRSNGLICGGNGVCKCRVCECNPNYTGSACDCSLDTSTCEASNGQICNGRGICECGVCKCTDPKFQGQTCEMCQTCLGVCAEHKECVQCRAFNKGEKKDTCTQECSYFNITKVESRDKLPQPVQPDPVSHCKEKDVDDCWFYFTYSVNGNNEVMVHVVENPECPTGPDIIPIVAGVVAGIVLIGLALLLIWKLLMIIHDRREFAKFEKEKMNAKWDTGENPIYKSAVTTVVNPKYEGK

B1: A11BB119: 16E10 variant; VH SEQ ID NO: 45, VL SEQ ID NO: 61 (antibody, V domains shown)
VH: EVQLLESGGGLVQPGGSLRLSCAASGFSFSSSYYMAWVRQAPGKGLEWVSAIGTTRGSTYYADSVKGRFTISRDNSKNTLYLQMNSLRAEDTAVYYCARDATGYRINTIGLYFNLWGQGTLVTVSS
VL: DIVMTQSPDSLAVSLGERATINCQASQTIYSYLSWYQQKPGQPPKLLIYEASKLASGVPDRFSGSGSGTDYTLTISSLQAEDVAVYYCQSYHGTASTEYNTFGGGTKVEIK
- IC50 (CHO-hu α11 [1]; [5]): 0.7 nM

B2: A11BB121: 16E10 variant; VH SEQ ID NO: 53, VL SEQ ID NO: 61 (antibody, V domains shown)
VH: EVQLLESGGGLVQPGGSLRLSCAASGFSFSSSYYMSWVRQAPGKGLEWVSAIGTTRGSTYYADSVKGRFTISRDNSKNTLYLQMNSLRAEDTAVYYCARDATGYRINTIGLYFNLWGQGTLVTVSS
VL: DIVMTQSPDSLAVSLGERATINCQASQTIYSYLSWYQQKPGQPPKLLIYEASKLASGVPDRFSGSGSGTDYTLTISSLQAEDVAVYYCQSYHGTASTEYNTFGGGTKVEIK
- IC50 (CHO-hu α11 [1]; [5]): 0.5 nM

B3: A11BB123: 16E10 variant; VH SEQ ID NO: 47, VL SEQ ID NO: 61 (antibody, V domains shown)
VH: EVQLLESGGGLVQPGGSLRLSCAASGFSFSSSYYMAWVRQAPGKGLEWVSAIGTTRGSTYYADSVKGRFTISRDSSKNTLYLQMNSLRAEDTAVYYCARDATGYRINTIGLYFNLWGQGTLVTVSS
VL: DIVMTQSPDSLAVSLGERATINCQASQTIYSYLSWYQQKPGQPPKLLIYEASKLASGVPDRFSGSGSGTDYTLTISSLQAEDVAVYYCQSYHGTASTEYNTFGGGTKVEIK
- IC50 (CHO-hu α11 [1]; [5]): 0.5 nM

B4: A11BB125: 16E10 variant; VH SEQ ID NO: 55, VL SEQ ID NO: 61 (antibody, V domains shown)
VH: EVQLLESGGGLVQPGGSLRLSCAASGFSFSSSYYMSWVRQAPGKGLEWVSAIGTTRGSTYYADSVKGRFTISRDSSKNTLYLQMNSLRAEDTAVYYCARDATGYRINTIGLYFNLWGQGTLVTVSS
VL: DIVMTQSPDSLAVSLGERATINCQASQTIYSYLSWYQQKPGQPPKLLIYEASKLASGVPDRFSGSGSGTDYTLTISSLQAEDVAVYYCQSYHGTASTEYNTFGGGTKVEIK
- IC50 (CHO-hu α11 [1]; [5]): 0.5 nM

B5: A11BB127: 16E10 variant; VH SEQ ID NO: 46, VL SEQ ID NO: 61 (antibody, V domains shown)
VH: EVQLLESGGGLVQPGGSLRLSCAASGFSFSSSYYMAWVRQAPGKGLEWVSAIGTTRGSTYYADSVKGRFTISRDNSKNTVYLQMNSLRAEDTAVYYCARDATGYRINTIGLYFNLWGQGTLVTVSS
VL: DIVMTQSPDSLAVSLGERATINCQASQTIYSYLSWYQQKPGQPPKLLIYEASKLASGVPDRFSGSGSGTDYTLTISSLQAEDVAVYYCQSYHGTASTEYNTFGGGTKVEIK
- IC50 (CHO-hu α11 [1]; [5]): 0.4 nM

B6: A11BB129: 16E10 variant; VH SEQ ID NO: 54, VL SEQ ID NO: 61 (antibody, V domains shown)
VH: EVQLLESGGGLVQPGGSLRLSCAASGFSFSSSYYMSWVRQAPGKGLEWVSAIGTTRGSTYYADSVKGRFTISRDNSKNTVYLQMNSLRAEDTAVYYCARDATGYRINTIGLYFNLWGQGTLVTVSS
VL: DIVMTQSPDSLAVSLGERATINCQASQTIYSYLSWYQQKPGQPPKLLIYEASKLASGVPDRFSGSGSGTDYTLTISSLQAEDVAVYYCQSYHGTASTEYNTFGGGTKVEIK
- IC50 (CHO-hu α11 [1]; [5]): 0.5 nM

B7: 79E3E3: anti-α11β1 monoclonal antibody from rat hybridoma; VH SEQ ID NO: 8, VL SEQ ID NO: 20 (antibody, V domains shown)
VH: QIQLVQSGPEVKKPGESVKISCKASGYTFTDYAMNWVKQAPGNGLKWMGWINTQTGKPTYADDFKQRFVFSLETSARTTYLQINNLNIEDTATYFCTRLGTGNTKGFAYWGQGTLVTVSS
VL: DILINQSPASLTVSAGERVTMSCKSSQSLLYSENNQDYLAWYQQKPGQFPKLLIYGASNRHTGVPDRFTGSGSGTDFTLTISSVQAEDLADYYCEQTYRYPFTFGSGTKLEIK
- EC50 (CHO-hu α11 [2]; Table 13, 79E3E3 variants): 2.5 nM
- Inhibits CHO-α11 mediated collagen gel contraction [3]: Yes
- inhibition of secreted Col1a1 [4]: inhibition
- inhibition of secreted IL-11 [4]: inhibition
- Kd (mouse α11β1; mouse α11β1, method not given, read-out: Cross reacts with mouse α11β1 (affinity)): 0.21 nM

B8: Antibody 58: 1994-01-C7 variant; VH SEQ ID NO: 31, VL SEQ ID NO: 37 (antibody, V domains shown)
VH: QVQLVQSGAEVKKPGASVKVSCKASGYTFTSYGISWVRQAPGQGLEWMGWISAYNANVNYAQKLQGRVTMTTDTSTSTAYMELRSLRSDDTAAYYCARVTGITGTTIGPWGQGTMVTVSS
VL: DIQMTQSPSSLSASVGDRVTITCRASQSISSYLNWYQQKPGKAPKLLIYDASSLESGVPSRFSGSGSGTEFTLTISSLQPDDFAVYYCQQYNNWPQTFGQGTKVEIK
- EC50 (CHO-hu α11 [2]; [6]): 5.94 nM
- IC50 (CHO-hu α11 [1]; [7]): 3 nM
- EC50 (Pulmonary Myofibroblast): 2.87 nM

B9: Antibody 54: 1994-01-C7 variant; VH SEQ ID NO: 30, VL SEQ ID NO: 37 (antibody, V domains shown)
VH: QVQLVQSGAEVKKPGASVKVSCKASGYTFTSYGISWVRQAPGQGLEWMGWISAYNANTNYAQKLQGRVTMTTDTSTSTAYMELRSLRSDDTAAYYCARVTGITGTTIGPWGQGTMVTVSS
VL: DIQMTQSPSSLSASVGDRVTITCRASQSISSYLNWYQQKPGKAPKLLIYDASSLESGVPSRFSGSGSGTEFTLTISSLQPDDFAVYYCQQYNNWPQTFGQGTKVEIK
- EC50 (CHO-hu α11 [2]; [6]): 5.5 nM
- IC50 (CHO-hu α11 [1]; [7]): 3.5 nM
- EC50 (Pulmonary Myofibroblast): 2.4 nM

B10: Antibody 60: 1994-01-C7 variant; VH SEQ ID NO: 33, VL SEQ ID NO: 37 (antibody, V domains shown)
VH: QVQLVQSGAEVKKPGASVKVSCKASGYTFTSYGISWVRQAPGQGLEWMGWISAYNSNTNYAQKLQGRVTMTTDTSTSTAYMELRSLRSDDTAAYYCARVTGITGTTIGPWGQGTMVTVSS
VL: DIQMTQSPSSLSASVGDRVTITCRASQSISSYLNWYQQKPGKAPKLLIYDASSLESGVPSRFSGSGSGTEFTLTISSLQPDDFAVYYCQQYNNWPQTFGQGTKVEIK
- EC50 (CHO-hu α11 [2]; [6]): 5.3 nM
- IC50 (CHO-hu α11 [1]; [7]): 4.2 nM
- EC50 (Pulmonary Myofibroblast): 4.6 nM

B11: 16E10: anti-α11β1 monoclonal antibody from B cell sorting; VH SEQ ID NO: 57, VL SEQ ID NO: 62 (antibody, V domains shown)
VH: QSLEESGGDLVKPGASLTLTCRVSGFSFSSSYYMCWVRQAPGKGLEWIACIGTTRGSTYYATWAKGRFTISKISSTTVTLQMTSLTDADTATYFCARDATGYRINTIGLYFNLWGPGTLVTVSS
VL: ELTQTPSSVEAAVGGTPTIKCQASQTIYSYLSWYQQKPGQPPKLLIYEASKLASGVPSRFSGSGSGTDYTLTISDLECADAATYYCQSYHGTASTEYNTFGGGTEVVVK
- Inhibits CHO-α11 mediated collagen gel contraction [3]: Yes
- inhibition of secreted Col1a1 [4]: inhibition
- inhibition of secreted IL-11 [4]: inhibition
- IC50 (CHO-hu α11 [1]; [5]): 0.4 nM
- Cross reacts with mouse α11β1 (mouse α11β1; yes/no): No
